Literature values as cited in publication PMC4414177, “A novel orally active water-soluble inhibitor of human glutathione transferase exerts a potent and selective antitumor activity against human melanoma xenografts” (Oncotarget, 2015).

Target: GSTP1-1 (Homo sapiens) (UniProt P09211)
Experiment: ELISA

Sequence of GSTP1-1 (Homo sapiens) (P09211 2-210): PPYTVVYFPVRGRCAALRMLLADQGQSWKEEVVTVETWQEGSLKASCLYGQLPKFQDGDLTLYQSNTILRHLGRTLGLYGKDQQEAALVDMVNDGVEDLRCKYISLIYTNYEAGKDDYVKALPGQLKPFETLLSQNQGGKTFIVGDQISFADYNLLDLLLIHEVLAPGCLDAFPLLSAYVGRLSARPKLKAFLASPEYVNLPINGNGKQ
Sequence of TRAF2 CTD (Q12933 310-501): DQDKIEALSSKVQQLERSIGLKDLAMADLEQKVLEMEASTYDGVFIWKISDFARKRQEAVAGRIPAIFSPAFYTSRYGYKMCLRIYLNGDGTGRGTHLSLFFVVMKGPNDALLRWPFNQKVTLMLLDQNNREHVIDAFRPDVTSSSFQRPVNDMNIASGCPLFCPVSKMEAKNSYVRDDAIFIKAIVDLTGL
Sequence of JNK1α2 (P45983 whole entry): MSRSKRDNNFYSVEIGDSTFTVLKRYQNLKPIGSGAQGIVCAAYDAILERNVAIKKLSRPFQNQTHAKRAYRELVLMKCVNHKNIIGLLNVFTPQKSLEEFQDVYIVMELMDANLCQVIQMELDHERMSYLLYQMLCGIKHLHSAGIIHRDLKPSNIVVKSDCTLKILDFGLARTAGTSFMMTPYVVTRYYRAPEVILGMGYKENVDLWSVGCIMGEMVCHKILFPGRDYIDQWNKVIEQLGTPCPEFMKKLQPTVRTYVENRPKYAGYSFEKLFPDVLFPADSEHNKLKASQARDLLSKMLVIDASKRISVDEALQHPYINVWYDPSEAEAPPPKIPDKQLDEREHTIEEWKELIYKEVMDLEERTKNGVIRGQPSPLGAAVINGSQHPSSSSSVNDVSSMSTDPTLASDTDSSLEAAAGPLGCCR

Kd [µM]	Substance
> 10	JNK1α2 (from UniProt P45983)
> 5	TRAF2 CTD (from UniProt Q12933)
